Assay results published in the supplement of paper PMC10567573.
± gives the standard deviation.

Assay: protein stability index of a GFP-peptide fusion (GPS, HEK-293T) (PSI 1-6); higher = more stable
Conditions: c terminus: a fixed tail appended
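Note: 24-mer peptide tiles fused after GFP, lentivirally expressed, FACS-sorted into six equal bins by GFP/DsRed ratio, decoded by Illumina sequencing, PSI is the read-weighted mean bin number.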

| Sequence | protein stability index (treatment: DMSO) | protein stability index (treatment: MLN4924 1 uM, 8 h) |
| --- | --- | --- |
| SLQLVFGIELMEVDPIGHVYIFAT [MAGEA6] | 2.73 ± 0.21 | 3 ± 0.28 |
| SMKASLEGNLAETENRYCVQLSQI [KRT17] | 3.22 ± 0.34 | 3.51 ± 0.39 |
| SNAERGTAEPFPRLHNLYSTPRCA [CBY2] | 3.95 ± 0.26 | 4.03 ± 0.14 |
| SNNHHLMLEASEWATIEGLVELLQ [ZBED1] | 2.66 ± 0.14 | 2.71 ± 0.48 |
| SQSSTYRGTYEQDGRFEKRQGNPS [ZNF396] | 4.74 ± 0.3 | 4.79 ± 0.31 |
| SQVQVSLEDYINDRQYDSRGRFGE [HNF4A] | 4.01 ± 0.14 | 4.18 ± 0.14 |
| SQVSYFTYIPENNARGASIFSVTA [PCDHGA10] | 2.29 ± 0.56 | 2.39 ± 0.54 |
| SRELASMNLDIVDLLKKAKFHHSD [RHOBTB3] | 3.2 ± 0.2 | 3.09 ± 0.23 |
| SRELEPELRRRRYEYDHWDAAIHG [ALKBH7] | 3.87 ± 0.25 | 3.92 ± 0.18 |
| SRQYDKFLTHFILMNDVIDTSGFP [FBXO33] | 2.51 ± 0.5 | 1.97 ± 0.5 |
| SRSQNTDMVQKSVSKTLPSTWSDP [CLINT1] | 3.87 ± 0.28 | 3.98 ± 0.23 |
| SSAGSVSPRSTSVTTTSSASVTTT [KRT13] | 5.25 ± 0.15 | 5.23 ± 0.12 |
| SSLFDLSVLKLHHSLQQSEPDLRH [SERTAD1] | 3.23 ± 0.21 | 3.29 ± 0.3 |
| SSPDDKLLTSPRAINNLVLQGCSS [KLHL14] | 3.99 ± 0.17 | 4.14 ± 0.23 |
| SSPDLDDMKLIILANRLCLPHLVA [RHOBTB2] | 2.55 ± 0.5 | 2.44 ± 0.19 |
| SSQPQDNSQVHRETEDVDYGETDF [TMEM40] | 5.58 ± 0.26 | 5.64 ± 0.3 |
| SSRQEKRPLCAQGDWHSPTLIREK [ELOA2] | 4.05 ± 0.24 | 4.23 ± 0.25 |
| STAPGLFLVSTHTGEVRTARALLE [PCDHGC5] | 2.5 ± 0.27 | 2.54 ± 0.31 |
| STGYCWCVLVDTGRPIPGTSTRYE [SMOC2] | 2.64 ± 1.8 | 2.12 ± 0.32 |
| STVGSAISRKLGDMRNSATFKSFE [TPD52L2] | 3.28 ± 0.2 | 3.28 ± 0.31 |
| SVCFIFTITIGMFPAVTVEVKSSI [SLC29A1] | 3.17 ± 0.55 | 3.46 ± 0.34 |
| SVPDVPKSMAWCENSICVGFKRDY [VPS39] | 2.91 ± 0.16 | 2.94 ± 0.25 |
| SVQQNGSIYIHVYFTKSGFHPDPR [CLPTM1] | 3.14 ± 0.98 | 2.29 ± 0.56 |

| Sequence | protein stability index (treatment: DMSO) | protein stability index (treatment: MLN4924 1 uM, 8 h) |
| --- | --- | --- |
| SWGWDLGRSRLYHDGKNQPGVAYP [SPSB4] | 2.72 ± 0.29 | 2.56 ± 0.26 |
| SWVVRVQAAKLLGSMEQVSSHFLE [INTS4] | 2.47 ± 0.45 | 2.53 ± 0.43 |
| SYDCTVKLWDPVDGSVVRDFEHRP [WDR88] | 3.44 ± 0.22 | 3.62 ± 0.3 |
| TAFCTHVFPETAFIAVTSYQNHKI [TBX5] | 2.31 ± 0.41 | 2.27 ± 0.42 |
| TEDEKKELENLAAMDLELQKIAEK [CHGB] | 5.47 ± 0.22 | 5.57 ± 0.083 |
| TEFTLGDDKHYGGFTNKQLQSGQE [PTPRD] | 4.91 ± 0.2 | 4.77 ± 0.13 |
| TELSFLVTTHQPTNLVLPSNGSMH [EDNRA] | 2.67 ± 0.33 | 2.44 ± 0.42 |
| TEPMAWNETADLGLDIGAQGEPLG [CTNNB1] | 5.29 ± 0.23 | 5.25 ± 0.18 |
| TEQLIEAVNNGDFEAYAKICDPGL [CAMK2B] | 4.19 ± 0.22 | 4.19 ± 0.23 |
| TESEAHYSSQLSQVQSLITNVESQ [KRT34] | 4.83 ± 0.31 | 4.78 ± 0.21 |
| TFFEVSPLCNFNIIESFTELARIV [RAB40A] | 2.53 ± 0.42 | 2.43 ± 0.28 |
| TFVFLASLLVLIEPVAAGSGIPEV [CLCN6] | 2.91 ± 0.58 | 2.71 ± 0.6 |
| TGAHWMRQPVSFHRVKLTNSTLDP [TBX6] | 2.96 ± 0.074 | 3.02 ± 0.16 |
| TGESKEQVANSAFVERVRKRGFEV [HSP90AB1] | 4.18 ± 0.15 | 4.26 ± 0.12 |
| TGIIDSLTISPKAARVGLLQYSTQ [MATN2] | 2.72 ± 1.3 | 2.43 ± 0.23 |
| TGVQEVLSALLRATPGEYSVNICG [SPAG8] | 2.5 ± 0.59 | 2.23 ± 0.16 |
| THEEGSYLFWEFATDNYDIGFGVY [ACBD3] | 2.65 ± 0.48 | 2.15 ± 0.32 |
| THPVTNTTEKQRLVKKLQDSVLER [GOLPH3L] | 4.13 ± 0.2 | 4.39 ± 0.13 |
| TISFRIYKSVLQAVQKTDEGHPFK [RTN1] | 2.13 ± 0.17 | 2.28 ± 0.13 |
| TKEVMNKYKVHGKEILRTLQDVFC [PPEF2] | 2.63 ± 0.12 | 2.65 ± 0.34 |
| TKKGFYSLSVRHRQVKHYRIFRLP [SLA] | 2.54 ± 0.45 | 2.54 ± 0.31 |
| TKMWHPNIYENGDVCISILHPPVD [UBE2R2] | 2.11 ± 0.34 | 2.23 ± 0.055 |
| TLEEKFSDVHPVALNFMKGCLKMN [CDKL4] | 3.08 ± 0.34 | 3.16 ± 0.27 |

| Sequence | protein stability index (treatment: DMSO) | protein stability index (treatment: MLN4924 1 uM, 8 h) |
| --- | --- | --- |
| TLGGELGALEALELSPPLSPASHV [FOXJ1] | 4.12 ± 0.3 | 4.26 ± 0.098 |
| TLQGLYLVYHPVQLSTPHAVGVLL [DHCR7] | 3.18 ± 0.49 | 2.97 ± 0.5 |
| TLRTCYAANPRPDALMKEQLVEMT [ISL2] | 3.53 ± 0.22 | 3.52 ± 0.28 |
| TLSASSSAGGSRTPAMSSSSSSRV [TFE3] | 4.57 ± 0.46 | 4.96 ± 0.25 |
| TLSTIEFQREALENSHTNTEVLRN [CHMP4C] | 4.66 ± 0.14 | 4.92 ± 0.19 |
| TNEKALEAVFGKYGRIVEVLLMKD [RBMX] | 1.97 ± 0.46 | 2.15 ± 0.29 |
| TNKFYMLDSRSTDRVLQWERIDCQ [KLHDC2] | 2.43 ± 0.36 | 2.8 ± 0.58 |
| TPSLLRFALASLLQSAPDVKGRVR [ZSWIM9] | 2.5 ± 0.16 | 2.53 ± 0.34 |
| TQEKKAESKEPIEEEPTGAGLNKD [SDE2] | 5.65 ± 0.12 | 5.41 ± 0.28 |
| TQGCHPAWEPRSESQASRKEEGLP [ZNF8] | 4.89 ± 0.25 | 4.96 ± 0.18 |
| TQHFVQENYLEYRQVPGSDPACYE [MAGEA3] | 4.26 ± 0.081 | 4.34 ± 0.12 |
| TQLKIENNPFAKGFRGSDDMELHR [TBX5] | 4.04 ± 0.25 | 4.02 ± 0.67 |
| TQQWTAICPLKERRFGAVACGVAM [GAN] | 2.83 ± 0.37 | 2.52 ± 0.55 |
| TRIMIGLTLVFFVQITGQPNILFY [SLC2A12] | 3.16 ± 0.61 | 3.27 ± 0.35 |
| TRKINNSFLRDHSYATEADIISTV [PPP2R2B] | 3.32 ± 0.14 | 3.32 ± 0.12 |
| TRYHLQQARRQQVKQYLSTTLGPK [TFE3] | 3.21 ± 0.15 | 3.29 ± 0.2 |
| TSLEITILTSQPGKEVVKQLEEGL [M1AP] | 2.74 ± 0.22 | 2.68 ± 0.2 |
| TSNSDDNMLKNIELFDKLSLRFNG [KCTD10] | 3.07 ± 0.3 | 3.18 ± 0.39 |
| TSPAKDSLSFEDFLDLLSVFSDTA [CIB1] | 2.28 ± 0.1 | 2.45 ± 0.27 |
| TSRTQVYKPPALKKSNSPGTASSG [ZC2HC1A] | 4.42 ± 0.15 | 4.46 ± 0.17 |
| TTGIVETHFTFKDLHFKMFDVGGQ [GNAI1] | 2.08 ± 0.35 | 2.27 ± 0.14 |
| TTLGPKLASQALTPPPGPASAQPL [TFE3] | 4.4 ± 0.48 | 4.4 ± 0.18 |
| TVEERQTGMWWRHLVAGGGAGAVS [SLC25A25] | 2.98 ± 0.39 | 2.96 ± 0.43 |

| Sequence | protein stability index (treatment: DMSO) | protein stability index (treatment: MLN4924 1 uM, 8 h) |
| --- | --- | --- |
| TVEPGKLDVGATEGQDLQHISNQK [DRICH1] | 5.43 ± 0.23 | 5.4 ± 0.4 |
| TVLTRSLFLGRILSLTSSASRLLT [FANCE] | 2.72 ± 0.13 | 2.81 ± 0.2 |
| TWKSGKQTMLSHYRPFYVNKGNGI [TRIM29] | 2.36 ± 0.41 | 2.4 ± 0.2 |
| TYLCERCQPRNLDKERAVLLQRRK [KMT2E] | 2.57 ± 0.48 | 3.32 ± 0.54 |
| VACFLTRGDLWISWEEGMKVFEEL [CRY1] | 2.67 ± 0.71 | 2.33 ± 0.39 |
| VAGEGVRRKGEMGLSAEDGVWAVI [TRIM15] | 2.51 ± 0.22 | 2.55 ± 0.2 |
| VARILIDLCSDVNVCSLLAQTPLH [RIPK4] | 2.65 ± 0.26 | 2.57 ± 0.4 |
| VASGLQFDVETRHVFIGDHSGQVT [WDFY2] | 2.91 ± 0.54 | 3.12 ± 0.46 |
| VAVALRKPDGSRHQDVPSQDDSKP [AASDHPPT] | 5.15 ± 0.26 | 5 ± 0.17 |
| VCALSALPAGPLPAPLLVLCPSRA [PLEKHN1] | 2.12 ± 0.2 | 2.18 ± 0.16 |
| VCVRAHESVVKSEDFSLPAYMDRR [COX4I1] | 3.1 ± 0.43 | 3.14 ± 0.24 |
| VDKDQPSILNSCEDPVPGMLFFLP [FBXO34] | 3.32 ± 0.39 | 3.02 ± 0.36 |
| VDLNRNFPDLNTYIYYNEKYGGPN [CPN1] | 2.64 ± 0.18 | 2.53 ± 0.52 |
| VEFDVLPAFDALGQLTGGYKPNPQ [OAS1] | 2.85 ± 0.27 | 2.9 ± 0.21 |
| VEGKGNGIKTVIVNMVDVAKALNR [EIF5] | 2.14 ± 0.21 | 2.22 ± 0.31 |
| VETELQRRNEETPEEGQQPWLCGE [GDAP1] | 5.38 ± 0.1 | 5.5 ± 0.15 |
| VEVLVDLFLKEGACDELFSYLIEK [PRAME] | 2.55 ± 0.66 | 3.03 ± 0.58 |
| VFAHCKEAPSTASSTPDSTEGGND [RTN2] | 5.42 ± 0.33 | 5.37 ± 0.37 |
| VFCREGPTHQAHTVGFLDEAIQPY [TRIM15] | 2.85 ± 0.31 | 2.83 ± 0.24 |
| VFLVSCALPDSVLRRFVVRTMCAV [AUP1] | 2.71 ± 0.49 | 2.67 ± 0.068 |
